Laboratory results reported in the supplement of paper PMC9112550, “Optimization of the antimicrobial peptide Bac7 by deep mutational scanning” (BMC Biology, 2022).
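Note: peptides expressed intracellularly from a pBAD plasmid library in pooled LB shake-flask culture, induced with 0.3% L-arabinose, DNA abundance read by NGS, three biological replicates, DESeq2 with apeglm shrinkage.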

Each sequence was assayed on Escherichia coli TOP10 (assay: shrunken log2 fold change of peptide-encoding DNA abundance (4.5 h post-induction vs induction); higher = less antimicrobial activity (less host growth inhibition)). Details: time post-induction: 4.5 h; library: site-saturation at positions 5, 18, 19, 20.
RRIRKRPPRLPRPRPRPPLYPRP was tested, and the “shrunken log2 fold change” value was 0.948. In the case of RRIRHRPPRLPRPRPRPTWEPRP, the “shrunken log2 fold change” value was 0.0143. RRIRWRPPRLPRPRPRPSTHPRP was tested, and the “shrunken log2 fold change” value was 0.667. RRIRGRPPRLPRPRPRPSFGPRP was tested, and the “shrunken log2 fold change” value was 0.0834. In the case of RRIRERPPRLPRPRPRPTQPPRP, the “shrunken log2 fold change” value was 0.254. In the case of RRIRQRPPRLPRPRPRPTTLPRP, the “shrunken log2 fold change” value was -0.196. In the case of RRIRWRPPRLPRPRPRPFKCPRP, the “shrunken log2 fold change” value was -0.127. With RRIRGRPPRLPRPRPRPALLPRP the “shrunken log2 fold change” value was 1.14. With RRIRDRPPRLPRPRPRPHYEPRP the “shrunken log2 fold change” value was -0.0202. In the case of RRIRRRPPRLPRPRPRPVKNPRP, the “shrunken log2 fold change” value was 0.148. For RRIRERPPRLPRPRPRPTSIPRP, the “shrunken log2 fold change” value was -0.19. For RRIRRRPPRLPRPRPRPYRGPRP, the “shrunken log2 fold change” value was -0.191. For RRIRWRPPRLPRPRPRPKKWPRP, the “shrunken log2 fold change” value was 0.254. In the case of RRIRARPPRLPRPRPRPTFRPRP, the “shrunken log2 fold change” value was 0.323. In the case of RRIRDRPPRLPRPRPRPRMEPRP, the “shrunken log2 fold change” value was -0.239. RRIRFRPPRLPRPRPRPGVWPRP was tested, and the “shrunken log2 fold change” value was 0.507. RRIRGRPPRLPRPRPRPHDFPRP was tested, and the “shrunken log2 fold change” value was -0.0983. With RRIRERPPRLPRPRPRPHGCPRP the “shrunken log2 fold change” value was -0.00136. For RRIRQRPPRLPRPRPRPYKDPRP, the “shrunken log2 fold change” value was -0.0988. RRIRRRPPRLPRPRPRPSREPRP was tested, and the “shrunken log2 fold change” value was 0.962. For RRIRDRPPRLPRPRPRPIARPRP, the “shrunken log2 fold change” value was 0.199. For RRIRNRPPRLPRPRPRPCAMPRP, the “shrunken log2 fold change” value was -0.132. With RRIRCRPPRLPRPRPRPWVLPRP the “shrunken log2 fold change” value was -0.265. RRIRMRPPRLPRPRPRPCAVPRP was tested, and the “shrunken log2 fold change” value was 0.296. For RRIRDRPPRLPRPRPRPPMVPRP, the “shrunken log2 fold change” value was 0.207. With RRIRFRPPRLPRPRPRPACRPRP the “shrunken log2 fold change” value was 0.192. With RRIRFRPPRLPRPRPRPCVYPRP the “shrunken log2 fold change” value was -0.0699. With RRIRPRPPRLPRPRPRPMSVPRP the “shrunken log2 fold change” value was 0.0754. For RRIRFRPPRLPRPRPRPMDAPRP, the “shrunken log2 fold change” value was 0.111. In the case of RRIRTRPPRLPRPRPRPYWDPRP, the “shrunken log2 fold change” value was -0.0758. For RRIRQRPPRLPRPRPRPSDEPRP, the “shrunken log2 fold change” value was -0.275. RRIRVRPPRLPRPRPRPDELPRP was tested, and the “shrunken log2 fold change” value was -0.0586. RRIRTRPPRLPRPRPRPQIKPRP was tested, and the “shrunken log2 fold change” value was -0.0374. RRIRRRPPRLPRPRPRPFGMPRP was tested, and the “shrunken log2 fold change” value was -0.0784. With RRIRDRPPRLPRPRPRPGFIPRP the “shrunken log2 fold change” value was -0.202. RRIRHRPPRLPRPRPRPRWRPRP was tested, and the “shrunken log2 fold change” value was 0.355. In the case of RRIRQRPPRLPRPRPRPRGTPRP, the “shrunken log2 fold change” value was 0.313. For RRIRDRPPRLPRPRPRPEPGPRP, the “shrunken log2 fold change” value was 0.707. In the case of RRIRTRPPRLPRPRPRPLRNPRP, the “shrunken log2 fold change” value was -0.0969. For RRIRERPPRLPRPRPRPKRMPRP, the “shrunken log2 fold change” value was -0.0497. In the case of RRIRVRPPRLPRPRPRPWSEPRP, the “shrunken log2 fold change” value was -0.00215. With RRIRFRPPRLPRPRPRPEVRPRP the “shrunken log2 fold change” value was 0.14. In the case of RRIRNRPPRLPRPRPRPNFQPRP, the “shrunken log2 fold change” value was -0.0807. In the case of RRIRARPPRLPRPRPRPECYPRP, the “shrunken log2 fold change” value was 0.361. RRIRCRPPRLPRPRPRPNMEPRP was tested, and the “shrunken log2 fold change” value was -0.237. RRIRWRPPRLPRPRPRPSICPRP was tested, and the “shrunken log2 fold change” value was -0.0271. RRIRCRPPRLPRPRPRPTYWPRP was tested, and the “shrunken log2 fold change” value was -0.113. In the case of RRIRHRPPRLPRPRPRPMNFPRP, the “shrunken log2 fold change” value was -0.0483. For RRIRIRPPRLPRPRPRPKIFPRP, the “shrunken log2 fold change” value was 0.27. With RRIRPRPPRLPRPRPRPQTKPRP the “shrunken log2 fold change” value was -0.0309. In the case of RRIRRRPPRLPRPRPRPFQDPRP, the “shrunken log2 fold change” value was -0.15. With RRIRKRPPRLPRPRPRPNGPPRP the “shrunken log2 fold change” value was -0.00695. For RRIRIRPPRLPRPRPRPQWDPRP, the “shrunken log2 fold change” value was 0.92. In the case of RRIRDRPPRLPRPRPRPSVEPRP, the “shrunken log2 fold change” value was 1.45. For RRIRPRPPRLPRPRPRPELIPRP, the “shrunken log2 fold change” value was 0.0313. RRIRTRPPRLPRPRPRPWGMPRP was tested, and the “shrunken log2 fold change” value was -0.126. With RRIRPRPPRLPRPRPRPIVMPRP the “shrunken log2 fold change” value was -0.445. RRIRKRPPRLPRPRPRPVAKPRP was tested, and the “shrunken log2 fold change” value was 3.34. In the case of RRIRPRPPRLPRPRPRPSCQPRP, the “shrunken log2 fold change” value was -0.733. With RRIRWRPPRLPRPRPRPVKFPRP the “shrunken log2 fold change” value was 0.0171. In the case of RRIRCRPPRLPRPRPRPNNSPRP, the “shrunken log2 fold change” value was -0.743. RRIRVRPPRLPRPRPRPFAHPRP was tested, and the “shrunken log2 fold change” value was -0.176. In the case of RRIRPRPPRLPRPRPRPWKQPRP, the “shrunken log2 fold change” value was 0.0524. With RRIRGRPPRLPRPRPRPCLLPRP the “shrunken log2 fold change” value was 0.164. RRIRERPPRLPRPRPRPKPVPRP was tested, and the “shrunken log2 fold change” value was 0.173. In the case of RRIRFRPPRLPRPRPRPELLPRP, the “shrunken log2 fold change” value was 0.146. For RRIRGRPPRLPRPRPRPLTPPRP, the “shrunken log2 fold change” value was 1.43. For RRIRFRPPRLPRPRPRPIKKPRP, the “shrunken log2 fold change” value was 0.0144. With RRIRIRPPRLPRPRPRPNYQPRP the “shrunken log2 fold change” value was -0.43. With RRIRTRPPRLPRPRPRPDLYPRP the “shrunken log2 fold change” value was 0.0261. With RRIRNRPPRLPRPRPRPAHAPRP the “shrunken log2 fold change” value was 0.116. In the case of RRIRFRPPRLPRPRPRPITSPRP, the “shrunken log2 fold change” value was -0.178. RRIRDRPPRLPRPRPRPSRAPRP was tested, and the “shrunken log2 fold change” value was 0.156. With RRIRFRPPRLPRPRPRPNKRPRP the “shrunken log2 fold change” value was -0.274. With RRIRLRPPRLPRPRPRPHNMPRP the “shrunken log2 fold change” value was -0.495.
